The record followed here is publication PMC8092461 (Nature, 2020).

B1: C110 IgG (antibody, V domains shown)
VH: QVQLQQSGAEVKKPGESLKISCKGSGYSFTSYWIGWVRQMPGKGLEWMGIIYPGDSDTRYSPSFQGQVTISADKSISTAYMQWSSLKASDTAMYYCARSFRDDPRIAVAGPADAFDIWGQGTMVTVSS
VL: DIQMTQSPSTLSASVGDRVTITCRASQSISYWLAWYQQKPGKAPKLLIYQASSLESGVPSRFSGSESGTEFTLTISSLQPDDFATYYCQQYNSYPYTFGQGTKLEIK
B2: C104 IgG (antibody, V domains shown)
VH: QVQLQQWGAGLLKPSETLSLSCAVYGGSLSGYYWSWIRQPPGKGLEWIGEINHFGSTGYNPSLKSRVTISVDTSKSQFSVKLSSVTAADTAVYYCARKPLLYSNLSPGAFDIWGQGTMVTVSS
VL: EIVLTQSPGTVSLSPGERATLSCWASQSVSASYLAWYQQKPGQAPRLLIYGASSRATGIPDRFSGSGSGTDFTLTISRLEPEDFAVYYCQQYGTTPRTFGGGTKVEIK
B3: C002 IgG (antibody, V domains shown)
VH: EVQLVESGGGVVQPGRSLRLSCAASGFTFSIYGMHWVRQAPGKGLEWVAVISYDGSNKYYADSVKGRFTISRDNSKNTLYLQMNSLRAEDTAVYYCAKEGRPSDIVVVVAFDYWGQGTLVTVSS
VL: not shown
B4: C119 IgG (antibody, V domains shown)
VH: QVQLVQSGAEVKKPGASVKVSCKASGYTFTSYYMHWVRQAPGQGLEWMGIINPSGGSTSYAQKLQGRVTMTRDTSTSTVYMELSSLRSEDTAVYYCARANHETTMDTYYYYYYMDVWGKGTTVTVSS
VL: QSALTQPASVSGSPGQSITISCTGTSSDVGGYKYVSWYQRHPGKAPKLMIYDVSNRPSGVSNRFSGSKSGNTASLTISGLQAEDEADYYCSSYTSSSTSVVFGGGTQLTVL
B5: C121 IgG (antibody, V domains shown)
VH: not shown
VL: QSALTQPASVSGSPGQSITISCTGTSSDVGSYNLVSWYQQHPGKAPKLMIYEGSKRPSGVSNRFSGSKSGNTASLTISGLQAEDEADYYCCSYAGSSTLVFGGGTKLTVL
B6: C105 IgG (antibody, V domains shown)
VH: QVQLVESGGGLIQPGGSLRLSCAASGFTVSSNYMSWVRQAPGKGLEWVSVIYSGGSTYYADSVKGRFTISRDNSKNTLYLQMNSLRAEDTAVYYCARGEGWELPYDYWGQGTLVTVSS
VL: QSALTQPPSASGSPGQSVTISCTGTSSDVGGYKYVSWYQQHPGKAPKLMIYEVSKRPSGVPDRFSGSKSGNTASLTVSGLQAEDEADYYCSSYEGSNNFVVFGGGTKLTVL

In this assay the target is SARS-CoV-2 RBD (receptor-binding domain of S, residues 331-524) (SARS-CoV-2, UniProt P0DTC2). Kind of assay: SPR.
With B1, the binding result is reported as “binds”.

For the molecule B2, the binding result was “binds”.

Consider B3, for which the binding result is “binds”.

As to B4, the binding result was “binds”.

For the molecule B5, the binding result is listed as “binds”.

Take B6: the binding result is reported as “binds”.
